From patent US20240391954A1, “MC4R AGONIST PEPTIDES” (The Regents of the University of Michigan, priority 2021, published 2024)
Starred links: 1 amine or outer side, 2 acyl side, 3 side chain; linkers in the order of their positions; H or OH if unused. Positions of bridges follow the written chain, without caps; N, C: chain ends. Non-standard residues stand in square brackets, D forms with d. Primed or numbered codes have the meaning given here. dTyr(4-OMe)″ = O-methyl-D-tyrosine, COc1ccc(C[C@@H](N[*:1])C(=O)[*:2])cc1; 2Pal = N[C@@H](Cc1ccccn1)C(=O)O; 3Pal = N[C@@H](Cc1cccnc1)C(=O)O; 4Pal = N[C@@H](Cc1ccncc1)C(=O)O; Cit = NC(=O)NCCC[C@H](N)C(=O)O; Nle = CCCC[C@H](N)C(=O)O; Orn = NCCC[C@H](N)C(=O)O; Aib = CC(C)(N)C(=O)O

Assays:
Test in all cases: cell-based or functional assay
human MC4R receptor [1] = molecular target: T1, human MC4R receptor (human, UniProt P32245 1-332)
human MC4R receptor [2] = molecular target: T1, human MC4R receptor; remark: listed apart in the source
human MC3R = human MC3R (human, UniProt P41968 1-323)
Chain of human MC3R (P41968 whole entry): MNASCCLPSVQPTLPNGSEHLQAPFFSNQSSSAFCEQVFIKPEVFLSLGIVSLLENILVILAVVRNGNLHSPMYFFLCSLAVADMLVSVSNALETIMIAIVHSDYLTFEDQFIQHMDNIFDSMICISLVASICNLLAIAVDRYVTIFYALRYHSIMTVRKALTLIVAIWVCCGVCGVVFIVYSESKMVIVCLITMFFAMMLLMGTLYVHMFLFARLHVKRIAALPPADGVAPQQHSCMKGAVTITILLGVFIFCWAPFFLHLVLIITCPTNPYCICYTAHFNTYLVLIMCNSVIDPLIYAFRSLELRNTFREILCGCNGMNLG

T1 sequence (P32245 whole entry): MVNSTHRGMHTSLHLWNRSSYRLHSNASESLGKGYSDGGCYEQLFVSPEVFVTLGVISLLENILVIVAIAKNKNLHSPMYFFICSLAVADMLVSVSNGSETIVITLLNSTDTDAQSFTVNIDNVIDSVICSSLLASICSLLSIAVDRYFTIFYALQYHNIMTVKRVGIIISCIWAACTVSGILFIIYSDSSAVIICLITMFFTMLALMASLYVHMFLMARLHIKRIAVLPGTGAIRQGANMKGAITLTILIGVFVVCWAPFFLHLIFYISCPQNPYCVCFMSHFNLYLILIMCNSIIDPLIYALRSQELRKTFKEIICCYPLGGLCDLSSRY

MC4R selectivity vs MC1R (human MC4R receptor [1]) | MC4R selectivity vs MC3R (human MC4R receptor [1]) | % max activation (human MC4R receptor [2]) [%] | cAMP EC50 (human MC4R receptor [2]) [nM] | % max activation (human MC3R) [%] | cAMP EC50 (human MC3R) [nM] | Binder
2.99 | 0.62 | 92 | 133 | 7.69 | 82 | Ac-RC[Aib][4Pal][dF]RFC-NH2 (disulfide 2-8; SMILES CC(=O)N[C@@H](CCCNC(=N)N)C(=O)N[C@H]1CSSC[C@@H](C(N)=O)NC(=O)[C@H](Cc2ccccc2)NC(=O)[C@H](CCCNC(=N)N)NC(=O)[C@@H](Cc2ccccc2)NC(=O)[C@H](Cc2ccncc2)NC(=O)C(C)(C)NC1=O) [CTX-1606]
3.66 | > 154 | 78 | 65 | – | > 10000 | Ac-RC[Aib][Cit][dTyr(4-OMe)″]RFC-NH2 (disulfide 2-8) [CTX-1299]
3.66 | 0.11 | 96 | 1520 | 12 | 167 | Ac-RC[Aib][2Pal][dF]RFC-NH2 (disulfide 2-8; SMILES CC(=O)N[C@@H](CCCNC(=N)N)C(=O)N[C@H]1CSSC[C@@H](C(N)=O)NC(=O)[C@H](Cc2ccccc2)NC(=O)[C@H](CCCNC(=N)N)NC(=O)[C@@H](Cc2ccccc2)NC(=O)[C@H](Cc2ccccn2)NC(=O)C(C)(C)NC1=O) [CTX-1604]
2.07 | 0.95 | 79 | 288 | 19 | 274 | Ac-R[Nle]C[Cit][dF]R[dW]C-NH2 (disulfide 3-8; SMILES CCCC[C@H](NC(=O)[C@H](CCCNC(=N)N)NC(C)=O)C(=O)N[C@H]1CSSC[C@@H](C(N)=O)NC(=O)[C@@H](Cc2c[nH]c3ccccc23)NC(=O)[C@H](CCCNC(=N)N)NC(=O)[C@@H](Cc2ccccc2)NC(=O)[C@H](CCCNC(N)=O)NC1=O) [CTX-1608]
0.12 | 0.93 | 93 | 3.3 | – | > 10000 | Ac-RC[Aib]R[dTyr(4-OMe)″]RFC-NH2 (disulfide 2-8) [CTX-1298]
0.93 | 2.3 | 97 | 11 | 73 | 26 | Ac-RC[Aib]R[dF]RFC-NH2 (disulfide 2-8) [CTX-1601]
3.65 | 3.44 | 97 | 73 | 80 | 251 | Ac-RC[Aib][Orn][dF]RFC-NH2 (disulfide 2-8; SMILES CC(=O)N[C@@H](CCCNC(=N)N)C(=O)N[C@H]1CSSC[C@@H](C(N)=O)NC(=O)[C@H](Cc2ccccc2)NC(=O)[C@H](CCCNC(=N)N)NC(=O)[C@@H](Cc2ccccc2)NC(=O)[C@H](CCCN)NC(=O)C(C)(C)NC1=O) [CTX-1602]
0.14 | > 300 | 85 | 33 | – | > 10000 | Ac-RC[Aib][3Pal][dF]RFC-NH2 (disulfide 2-8; SMILES CC(=O)N[C@@H](CCCNC(=N)N)C(=O)N[C@H]1CSSC[C@@H](C(N)=O)NC(=O)[C@H](Cc2ccccc2)NC(=O)[C@H](CCCNC(=N)N)NC(=O)[C@@H](Cc2ccccc2)NC(=O)[C@H](Cc2cccnc2)NC(=O)C(C)(C)NC1=O) [CTX-1605]
